Measured values as given in publication PMC6814260 (Chembiochem : a European journal of chemical biology, 2019).

Target: the molecule itself

B1: XoxF, lanthanide-dependent methanol dehydrogenase from Methylobacterium extorquens AM1 (enzyme, UniProt C5B120 22-601, looked up)
chain: NESVLKGVANPAEQVLQTVDYANTRYSKLDQINASNVKNLQVAWTFSTGVLRGHEGSPLVVGNIMYVHTPFPNIVYALDLDQGAKIVWKYEPKQDPSVIPVMCCDTVNRGLAYADGAILLHQADTTLVSLDAKSGKVNWSVKNGDPSKGETNTATVLPVKDKVIVGISGGEFGVQCHVTAYDLKSGKKVWRGYSIGPDDQLIVDPEKTTSLGKPIGKDSSLKTWEGDQWKTGGGCTWGWFSYDPKLDLMYYGSGNPSTWNPKQRPGDNKWSMTIWARNPDTGMAKWVYQMTPHDEWDFDGINEMILTDQKFDGKDRPLLTHFDRNGFGYTLDRATGEVLVAEKFDPVVNWATKVDLDKGSKTYGRPLVVSKYSTEQNGEDVNSKGICPAALGTKDQQPAAFSPKTGLFYVPTNHVCMDYEPFRVTYTPGQPYVGATLSMYPAPGSHGGMGNFIAWDNLQGKIKWSNPEQFSAWGGALATAGDVVFYGTLEGFLKAVDSKTGKELYKFKTPSGIIGNVMTYEHKGKQHVAVLSGVGGWAGIGLAAGLTDPNAGLGAVGGYAALSSYTNLGGQLTVFSLPNN
With B1 the “stoichiometry N” value was 2.
